Assay results from publication PMC10783490, “Biochemical and cellular insights into the Baz2B protein, a non-catalytic subunit of the chromatin remodeling complex” (Nucleic Acids Research, 2023).
Residue numbers refer to the chain shown, from its start.

Key:
Assay in all cases: MST; 100 nM fluorescently labelled (RED-NHS) BRD^Baz2B, peptide (H3 or H3K14ac) titrated; MST buffer 150 mM Tris-HCl, 50 mM NaCl, 10 mM MgCl2, pH 7.6, 0.0025% Pluronic, 200 ng/ul BSA; 25 C, 20% MST power; at least triplicate
Details in all cases: both partners purified
[1] = molecular target: T1, His6-BRD^Baz2B (bromodomain of human Baz2B, wild-type) (human, UniProt Q9UIF8 2054-2168, fluorescent label (Monolith NT Protein Labelling Kit RED-NHS))
T1 construct: bromodomain (BRD) of human Baz2B, from plasmid pNIC28-Bsa4-BAZ2B-BRD; also called BAZ2B-BRD; source: E. coli BL21(DE3)-R3-pRARE2, purified (Ni-NTA, Sephadex 75)
T1 sequence: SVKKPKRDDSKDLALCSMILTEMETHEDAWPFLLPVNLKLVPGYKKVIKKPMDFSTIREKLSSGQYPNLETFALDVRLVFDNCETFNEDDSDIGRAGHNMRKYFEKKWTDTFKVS

[2] = molecular target: T2, BRD^Baz2B F2139C (human, UniProt Q9UIF8 2054-2168, F2139C, fluorescent label (Monolith NT Protein Labelling Kit RED-NHS))
T2 construct: bromodomain (BRD) of human Baz2B with a cancer-associated point mutation, made on pNIC28-Bsa4-BAZ2B-BRD; Same limits as m1; mutation found in endometrial cancer; source: E. coli BL21(DE3)-R3-pRARE2, purified (Ni-NTA, Sephadex 75)
T2 sequence: T1 sequence with F86C

[3] = molecular target: T3, BRD^Baz2B D2143N (human, UniProt Q9UIF8 2054-2168, D2143N, fluorescent label (Monolith NT Protein Labelling Kit RED-NHS))
T3 construct: bromodomain (BRD) of human Baz2B with a cancer-associated point mutation, made on pNIC28-Bsa4-BAZ2B-BRD; Same limits as m1; mutation found in breast invasive carcinoma; source: E. coli BL21(DE3)-R3-pRARE2, purified (Ni-NTA, Sephadex 75)
T3 sequence: T1 sequence with D90N

[4] = molecular target: T4, BRD^Baz2B T2138I (human, UniProt Q9UIF8 2054-2168, T2138I, fluorescent label (Monolith NT Protein Labelling Kit RED-NHS))
T4 construct: bromodomain (BRD) of human Baz2B with a cancer-associated point mutation, made on pNIC28-Bsa4-BAZ2B-BRD; Same limits as m1; mutation found in multiple myeloma; source: E. coli BL21(DE3)-R3-pRARE2, purified (Ni-NTA, Sephadex 75)
T4 sequence: T1 sequence with T85I

[5] = molecular target: T5, BRD^Baz2B K2098N (human, UniProt Q9UIF8 2054-2168, K2098N, fluorescent label (Monolith NT Protein Labelling Kit RED-NHS))
T5 construct: bromodomain (BRD) of human Baz2B with a cancer-associated point mutation, made on pNIC28-Bsa4-BAZ2B-BRD; Same limits as m1; mutation found in multiple myeloma; source: E. coli BL21(DE3)-R3-pRARE2, purified (Ni-NTA, Sephadex 75)
T5 sequence: T1 sequence with K45N

[6] = molecular target: T6, BRD^Baz2B L2073V (human, UniProt Q9UIF8 2054-2168, L2073V, fluorescent label (Monolith NT Protein Labelling Kit RED-NHS))
T6 construct: bromodomain (BRD) of human Baz2B with a cancer-associated point mutation, made on pNIC28-Bsa4-BAZ2B-BRD; Same limits as m1; mutation found in pancreatic cancer (COSMIC/ICGC); source: E. coli BL21(DE3)-R3-pRARE2, purified (Ni-NTA, Sephadex 75)
T6 sequence: T1 sequence with L20V

[7] = molecular target: T7, BRD^Baz2B L2127V (human, UniProt Q9UIF8 2054-2168, L2127V, fluorescent label (Monolith NT Protein Labelling Kit RED-NHS))
T7 construct: bromodomain (BRD) of human Baz2B with a cancer-associated point mutation, made on pNIC28-Bsa4-BAZ2B-BRD; Same limits as m1; mutation found in breast cancer; source: E. coli BL21(DE3)-R3-pRARE2, purified (Ni-NTA, Sephadex 75)
T7 sequence: T1 sequence with L74V

[8] = molecular target: T1, His6-BRD^Baz2B (bromodomain of human …); remark: listed apart in the source

B1: H3 peptide (Ac-TARKSTGGKAPRKQL-NH2) (peptide)
peptide: Ac-TARKSTGGKAPRKQL-NH2
notes: N-terminal tail of histone H3, residues 6-20; also called unmodified H3 peptide; unmodified H3K14 tail peptide; source: synthetic peptide, bought: alta Bioscience
Kd [1]: 288 µM
Kd [2]: > 798 µM
Kd [3]: 42 µM
Kd [4]: 211 µM
Kd [5]: 8 µM
Kd [6]: 7 µM
Kd [7]: 1.7 µM
Kd [8]: > 288 µM
